Results from patent publication US20120264231A1, “ASSAY FOR ORAI CALCIUM CHANNEL REGULATORS” (IMMUNE DISEASE INSTITUTE, INC., priority 2009, published 2012).

Biological target: T1, ORAI1 (R91W) (Homo sapiens, UniProt Q96D31, R91W)
T1 construct: the ORAI functional fragment is ORAI1 (65-301), ORAI1 (65-87), or full length ORAI1; made in house; host or cells: S. cerevisiae NY17 (sec6-4), isolated secretory vesicles
Assay: Cameleon D3 cpV intravesicular Ca^2+ assay, vesicles with ORAI1 (R91W)
Type: biochemical
Settings: vesicles containing ORAI1 (R91W)
Text: Confirmation that Ca^2+ release from the vesicles was due to gating of the ORAI 1 channel was sought. […] It was concluded that the in vitro assay reflects STIM 1-dependent gating of ORAI1 and Ca^2+ flux through the ORAI1 channel pore.
The yeast expression vector pBEVY-GU60 allows for simultaneous expression of two transgenes by means of the bidirectional GAL1-10 promoter. The FRET-based calcium sensors D3 cpV and D4 cpV53 were fused at the N-terminus with the S. cerevisiae α-mating factor secretion signal (Bitter, G. A., et al., Proc Natl Acad Sci USA 81, 5330-5334 (1984)), which directs proteins into the secretory pathway, and introduced into pBEVY-GU in the following way. Vector pPIC9 (Invitrogen) served as template for PCR amplification of the α-mating factor secretion signal (5′ primer: […] (SEQ ID NO: 2); 3′ primer: […] (SEQ ID NO: 3)), introducing an EcoRI site at the 5′ end, and a sequence complementary to that encoding the N-terminus of the calcium sensor at the 3′ end. DNA encoding the N-terminal portion of the calcium sensor D3 cpV, comprising CFP, was amplified by PCR (5′ primer: […] (SEQ ID NO: 4); 3′ primer: […] (SEQ ID NO: 5)), introducing an SphI site followed by a stop codon and a NotI site at the 3′ end of the resulting DNA fragment. […]

T1 sequence (Q96D31 2-301 R91W): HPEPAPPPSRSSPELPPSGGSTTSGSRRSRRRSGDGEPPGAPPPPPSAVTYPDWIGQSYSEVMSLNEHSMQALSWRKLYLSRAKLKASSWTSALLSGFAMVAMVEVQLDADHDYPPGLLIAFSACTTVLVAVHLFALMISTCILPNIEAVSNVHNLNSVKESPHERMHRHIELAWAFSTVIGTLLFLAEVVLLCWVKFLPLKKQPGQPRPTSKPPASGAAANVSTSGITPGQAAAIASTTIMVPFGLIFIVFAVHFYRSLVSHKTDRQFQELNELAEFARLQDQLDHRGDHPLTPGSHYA

## STIM1^CT: cytoplasmic region of STIM1, mouse residues 233-685, His-tagged recombinant protein expressed in E coli
  Ca^2+ release from vesicles: did not elicit Ca^2+ release
